# Data taken from publication PMC7116727.
# Target: S2 component of the furin-cleaved SARS-CoV-2 spike ectodomain ('2P' mutant) (SARS-CoV-2) (UniProt P0DTC2)
# Test: cryo-EM structure
substance,measurement,value
S2 component of the furin-cleaved SARS-CoV-2 spike ectodomain ('2P' mutant) (from UniProt P0DTC2) (domain or fragment),stoichiometry N,3
